Assay: label from the status in PepcDB records

In the case of “MISNKRRPKIKIWNKEQMALYLKAIKKDRLYAAFVTDSKSGLRKSELLALRWSDIDFSTGLTKIERGWVRSPKGTLYLSDLKSENSERTLVFSTDLLKVLLEHKSRQDEEKKTAGKNYIDNGLVFCREDGSYINPSTFTRRHYDLTAKAKLPRISVHALRHSISTALLESGKVDLKQIQEMLGHKDISTTGNYYTDVLERMKQKTSELIDNLIQTELEHHHHHH”, the protein production is reported as “failed”.

In the case of “MFVRSHCLEVTNLRKWFYYFNRRNKRMQWLKVILAGFIEIIWVTGLDQAHSLFTWIFTLFFIALSFFLVIDASKHLPVGTVYAFFVGIGAVGTVLVDMIFFNQPFTFTKIFLIMTLILGIIGLKLTTDATKEGR”, the protein production is reported as “failed”.

For “ANFADSGKSLPPSMTSVPVTPVAAHTSSTPLTDIAADTTANDAPAIAAEFGQPDWPEEFGRKITWLATQRMQAAELKLHPAHLGPIEISLQLSDDQRLTAQFISHHPAVREAIEANLPRLREIMAENGITLADTSVSADT”, the protein production was “not failed”.

In the case of “MTRFIHTADWQIGRQYGQFDSDDAAVLAEARLEPVARIAAQASELAVDAVLVAGDVFDTQSVSDRTIRRLFGAMQAYEGPWVLIAGNHDAALADSVWSRARRLECIGTNVHVPQDTAAVELPLAGLAVLAAPLTQRHTYDDVTAAFDTMDSAAGLVRVGLAHGSVADRLPEQADAANPIAPDRAQRARLDYLALGDWHGCLRIDERTWYAGTPEPDRFRGNAPGYALLVEVAAPGAPPQVRQLEVGKYRWSHWVERLDLASDAEDLGHRLAGLQAGDVLRLELHGALSLARRWDALRRDVERAAARVRALVADSAGLVLEPDAADLAALSVDGYVGAAAARLQAMQGDGAQAAAARVALRLLLQYQRELAEGAS”, the protein production is reported as “failed”.

In the case of “MTPTPLHSITPFSMLDFPSMLSCILWFSGCNLACSYCYNPEFLKESGKIDLEGLLSFLRSRVGLLEGVVFSGGEATLFAGLPLWMEEVRSLGFKIKLDTNGTNPAMLKELLQKGYLDYVAMDFKGKEERFGMITGREFYGRFLESLEILLSSSIPFEIRTTVHSYLLQEEDIAEMAALLKERGYKGAFYLQHFVGEKETLKPLPESRRLKLDEEAIETKIIWR”, the protein production is reported as “failed”.

With “MSLKIIDFRLRPPAMGFLNARIYTRPDIRNRFTRQLGFEPAPSAEEKSLELMFEEMAAAGIEQGVCVGRNSSVLGSVSNADVAAVAKAYPDKFHPVGSIEAATRKEAMAQMQEILDLGIRIVNLEPGVWATPMHVDDRRLYPLYAFCEDNGIPVIMMTGGNAGPDITYTNPEHIDRVLGDFPDLTVVSSHGNWPWVQEIIHVAFRRPNLYLSPDMYLYNLPGHADFIQAANSFLADRMLFGTAYPMCPLKEYTEWFLTLPIKPDAMEKILHGNAERLLAQAGREGHHHHHH” the protein production was “not failed”.

With “MPDATLSNTSLGRLAWLWLTVLIVAVDQVSKYYFENALSLYQQIIVIPDYFSWTLAYNTGAAFSFLADGAGWQRWLFALIAVVVSAVLVVWLKRLGRDDTWLAIALALVLGGALGNLYDRVVLGHVIDFILVHWQNRWYFPAFNVADSAITVGAIMLALDMFKSKKTGETVND” the protein production was “failed”.

For “MTEAPRKITDDPYGAWHLIRRLVMEQASAYWRRYALAFGLMAIAAAATSGSAFLLGKVINQAYVDRDLQGIMFWSVVTLVVFSLKGAATYGQSVILTQIKNAILANNQRRMFHKLMSESIGFFSQRHSSEFLARLTAGANSVTEVLNLLINAIGRDLLSLIGLVIVMVVQDPFMALFGLLVAPPAAFVVRKLVKRVKGLALTQFTGNAQILETMQESLQGIRTVKAFSLEKTMSDRIDANIAAVQANADKMAKVSNRSSPLMETLGGFAVAASLMYGGYRVVATGATPGEFFSFLTAFLLAYEPAKRLARLNIELNSGLVGARMLLEIIDSPPSEPDDSHKPALQLTEARVEFDHVSFAYRPDEPVLNAMSFVAEPGKMTALVGPSGGGKSTVLALLLRLYEVQSGEIRIDGQSTSTVSRESLRRQTAYVGQDVYLFRDTVRANIAFGKLGATEDEIVAAAKAACAHDFIMGFPLGYDTPVGEHGAQLSGGQRQRIAVARALLRDAPIVLLDEATAALDSESEKLVQEAIDRLARGRTTIVIAHRLHTIMHADSILVVEAGEIVEQGRHDDLLRRSGRYASFFRLQQRHATPLAPADATA”, the protein production was “failed”.

For “DFELLHKLGGGNYGDVHLASVKDCNFVCALKRLSIKKLADFDIATQLRREIEIAFNTRHKYLLRTYAYFFDETDIYLIMEPCSNGMLYTELNRVKCFAPPTAARYVAQLAEALLYLHQHHILHRDIKPENILLDHNNNIKLADFGWSVHDPDNRRKTSCGTPEYFPPEIVGRQAYDTSADLWCLGIFCYELLVGKTPFVGKDTDQICKNIHSMHFKIPENIPSEAKDLIANLLLRDGSRRLALHRVVNHQFLLKYYYLPNNL”, the protein production was “not failed”.

For “MIIEYNKLGTILYSRISHKQLYNIFHYSYHEVRLLVYNKYLPIPKQFNDEFWTVEKVEHIRYLSLTGKPYKIFNEDMNSLRVLDKVRFKLDKATSISLTPKANLELEFSGIYMKSPLYLGDMSYGALSGNPNIAIATAADLTETLAGTGEGGLHPEVAKHKRIFVQWASARFGVDIRVLTAGMGVVIKIGQGAKPGIGGHLPGNKVTEPISLTRRIPIGIDAISPAPHHDIYSIEDLGQRIEALKEATGRPVFVKVAATNYIPYIVSGIARMGADGVIIDGHGAGTGATPVVIRDNVGIPIELAIASADKILRREGLRDKFTIIAAGRVSSATDAAKLFALGADIVSVGTGALIAMGCVMVHKCHVGSCPTGLTAKIDGTRVVDTEFGVKMLVNFINGFSLELANILDNLGLNNIRELRGRRDLLYGHGLSKDTLETLGIDGTEDEANPKLGELWNRRIIAYMHELMNKGNPVITSMGSTAPPDVEKPARIIDWLRSDGAQVTRPSIDPYREDVDTSFYLKGGEIYLSLPIIFDITEAPLEYKEAFSWSALALSSAVFDYETIDKYAEVFISSDGRGIARWSRNEIYENSYLLIPADENVIDEVIGMGVQGFIIDEDSGNSDLELVVSALDTKLKEVGVRNHYDILAKSSRLRHSADAFKLILLGADSVIMPYFILEKAIGEGNKGNLKEKAFSLITGMKKEIALLAGAAGVYSVQSTLTGNRELLRSINLNHSIRKALRIKPAGSL”, the protein production was “failed”.

With “KTMKMRKFTIADASLERSPGQEADISVGNLVDERHGGPITIGYGRYAPGQSLTETMAVDDVMIVLEGRLSVSTDGETVTAGPGEIVYMPKGETVTIRSHEEGALTAYVTYPHWRPAHA” the protein production was “not failed”.

In the case of “MRWRADFLSAWAEALLRKAGADEPSAKAVAWALVEADLRGVGSHGLLRLPVYVRRLEAGLVNPSPTLPLEERGPVALLDGEHGFGPRVALKAVEAAQSLARRHGLGAVGVRRSTHFGMAGLYAEKLAREGFVAWVTTNAEPDVVPFGGREKALGTNPLAFAAPAPQGILVADLATSESAMGKVFLAREKGERIPPSWGVDREGSPTDDPHRVYALRPLGGPKGYALALLVEVLSGVLTGAGVAHGIGRMYDEWDRPQDVGHFLLALDPGRFVGKEAFLERMGALWQALKATPPAPGHEEVFLPGELEARRRERALAEGMALPERVVAELKALGERYGVPWRDDA”, the protein production is reported as “not failed”.

With “MGTALVYHEDMTATRLLWDDPECEIECPERLTAALDGLRQRGLEERCLCLSACEASEEELGLVHSPEYIALVQKTQTLDKEELHALSKQYDAVYFHPDTFHCARLAAGAALQLVDAVLTGAVHNGLALVRPPGHHSQRAAANGFCVFNNVALAAKHAKQKYGLQRILIVDWDVHHGQGIQYIFNDDPSVLYFSWHRYEHGSFWPFLPESDADAVGQGQGQGFTVNLPWNQVGMGNADYLAAFLHVLLPLAFEFDPELVLVSAGFDSAIGDPEGQMQATPECFAHLTQLLQVLAGGRICAVLEGGYHLESLAQSVCMMVQTLLGDPTPPLLGLMVPCQSALESIQSVQTAQTPYWTSLQQNVAPVLSSSTHSPEERSLRLLGESPTCAVAEDSLSPLLDQLCLRPAPPICTAVASTVPGAALCLPPGVLHQEGSVLREETEAWARLHKSRFQDEDLATLGKILCLLDGIMDGQIRNAIATTTALATAATLDVLIQRCLARRAQRVLCVALGQLDRPLDLADDGRILWLNIRGKDAAIQSMFHFSTPLPQTTGGFLSLILGLVLPLAYGFQPDMVLMALGPAHGLQNAQAALLAAMLRSPVGGRILAVVEEESIRLLARSLAQALHGETPPSLGPFSKATPEEIQALMFLKARLEARWKLLQVAAPPP” the protein production was “failed”.

For “MAAQALLSVGERRLLRGVDEQRALGAALARALAPGSVLFLEGELGAGKTTLTQGLLAALGFDGHVTSPTYALMQLYPASAGQVLHVDAYRVRDVAELYEMDLDELIAGSRLSVIEWGEGLYADYPQAPIYLFEHVEGDPETRRVTRRRLEHHHHHH”, the protein production was “failed”.

For “MVWFLILQLIVLLILVAFSATLMAKGTRELERSFGKGIAGGLILGFINALPETIIVIQAVLNGFYDIALGSALGGNILLLTLGIGLISIFYYLKYKSNIITLDSDINIEYSSFLLAVIILGIAIVYGKLNYYIGLFLLSPYIYYIYRRYKNYRGILKNEKNKGNAIKGLAYVMIGGLPLIFISKYLISTISSIASVFNVQPLILAILITPIAAELEENLTAIKLISDSPSSATTALMNFIGSKLENMTLLLSIIGISQTVSLRPSLLYLLLILATSLLALGIIKDRNIKVKEGLSLFGIYAILIAILLRFSA”, the protein production was “failed”.

In the case of “LHARLLQQESIINALPFAVFIRTAAGELAVYNSHFAEAHQDKLNDLLNHNNEPANWPMTSPLDREIDKYCRQVLTHRKPQMVDLSLEINGELRDIFLWIIPLDNAERSLFGGWLDISQRKTVERQLEAARVEAESANRTKSTFLATISHELRTPMYAIMGLL”, the protein production is reported as “failed”.

In the case of “MNCGRIRSLLQGGEATAGPVIYWMSRDQRVADNWALIHAQKLALARSAPLGVLFCLAPRFLGATARQYRFMLKGLEQVRAALNRLDIPFFLVTGDPKGAVAAFTRRHRVSYLVTDFDPLRVKREWKRQVAGEISIPFDEVDAHNIVPCWITSQRQEWGAYTIRPKIHRLLPDFMEPFPPLQRHPFPWQGALPSDAEWRETFTGMTLDESVPEVSWLASGEEAAQAALARFLEDGLAGYATRRNNPAVMGQSGLSPWLHFGQLSAQRVAQAAFAAAAPIESRDAFLEELIVRRELADNFCYYNDAYDRFDGFPEWAQRTLNRHRHDPRPQCYEHDVLEQGQTHDSLWNAAQLEMVRWGRMHGYLRMYWAKKLLEWTSSPEDALMIAIQLNDRYQLDGRDPNGYAGIAWSIGGVHDRPWAERPVFGTIRFMSRDGCRRKFDTDAYERRVIISPATCAGIALCK”, the protein production is reported as “failed”.

With “MYSGAYSFVQISTAAYRISITRLEKTMESLQQQVAQLLEQQPTLLPAAMAEQLNVTEFDIVHALPEEMVAVVDGSHAQTILESLPEWGPVTTIMTIAGSIFEVKAPFPKGKVARGYYNLMGRDGELHGHLKLENISHVALVSKPFMGRESHYFGFFTAQGENAFKIYLGRDEKRELIPEQVARFKAMQQQHKQLEHHHHHH” the protein production was “not failed”.

In the case of “MADTSCKLKPLCFRFVSTLKSPIAVITVTYSPGKYLASFLDSLPGATSRDTHVVMADNGSVDGVPEQAAASRSNVEFLSTGGNLGYGTAINIAARSLRARREAGEIDGEFFLVSNPDVVFDEDSIDQLLECAKRHPEAGAVGPLIREADGSAYPSARAVPTLANGIGHALLGAVWKSNPWSAAYRDDEDMDTERTAGWLSGSCLLLRWDAFDRVGGFDERYFMYMEDVDLGDRLVRAGFTNVFCPSAQIIHAKGHVAGKNPENMLPAHHESAYRFQADRLAKPWQAPIRLALRIGLKLRAGVAVGVSKMRTKASLEHHHHHH”, the protein production is reported as “failed”.

In the case of “MGTTEKSGIKEIIIQGLTRAGKPFRPSDWVDRMCSTYASFGADRKLRYSPYLKPRVIEGVRCLAVDLKLKDTNPEGFNQLMHFATENQLNILDAEGNSIDAAQVTEI”, the protein production is reported as “not failed”.

With “AATDIHVHFRTPGETEKEDFGSGSLSAIYGGTTYVMDMPNNRFPITDYNAFGDKLGSIDSTSFADFSLYSMETGKNAMLLDRRSIGLKVYLGGSTNSTGTEVIEEGDIRKINEMNYPVVFHGESERCLKTHQMEEKNLRDHNLARPIDCEIEAAKYVSGLDIKTKIMAHVSSPDVTGNFLREVTPHHLLLNDEMPLGSFGKVNPPLRDSRTQKRLLDDYISGKFDILSSDHAPHTEDDKREFEFAKSGIIGVETRVPLFLALAQKKIVPLDVLYRTAIENPPSIFGIKKGKIEIGYDADFMVIDFTSMKRINDNRLHSKFPVSPFNGMDAI” the protein production was “failed”.

From a protein production outcome set (Wang et al. 2014)
